Biological target: the molecule itself
Assay: AUC

B1: WbpE from Pseudomonas aeruginosa PAO1 (enzyme, UniProt Q9HZ76 1-359, looked up)
chain: MIEFIDLKNQQARIKDKIDAGIQRVLRHGQYILGPEVTELEDRLADFVGAKYCISCANGTDALQIVQMALGVGPGDEVITPGFTYVATAETVALLGAKPVYVDIDPRTYNLDPQLLEAAITPRTKAIIPVSLYGQCADFDAINAIASKYGIPVIEDAAQSFGASYKGKRSCNLSTVACTSFFPSKPLGCYGDGGAIFTNDDELATAIRQIARHGQDRRYHHIRVGVNSRLDTLQAAILLPKLEIFEEEIALRQKVAAEYDLSLKQVGIGTPFIEVNNISVYAQYTVRMDNRESVQASLKAAGVPTAVHYPIPLNKQPAVADEKAKLPVGDKAATQVMSLPMHPYLDTASIKIICAALTN
  stoichiometry N: 2

Source: article PMC2923267 (Biochemistry, 2010)
